# Test results: paper PMC6218473, “Recognition of host Clr-b by the inhibitory NKR-P1B receptor provides a basis for missing-self recognition” (Nature Communications, 2018)
# B1: NKR-P1B tetramers (biotinylated NKR-P1B on streptavidin) [modified: biotin on the BirA tag; biotin on the BirA tag] [mouse] / Clr-b on transfected HEK293T cells [mouse] (parent)
# chain 1: SAKLECPQDWLSHRDKCFHVSQVSNTWKECRIDCDKKGATLLLIQDQEELRFLLDSIKEKYNSFWIGLSYTLTDMNWKWINGTAFNSDVLKITGVTENGSCAAISGEKVTSEGCSSDNRWICQKELN
# chain 2: MCVTKASLPMLSPTGSPQEVEVGKILQGKRHGTISPESCAKLYCYYGVIMVLTVAVIALSVALSATKTEQIPVNKTYAACPQNWIGVENKCFYFSEYPSNWTFAQAFCMAQEAQLARFDNQDELNFLMRYKANFDSWIGLHRESSEHPWKWTDNTEYNNTIPIRGEERFAYLNNNGISSTRIYSLRMWICSKLNSYSLHCQTPFFPS
# Variants of: B1
# Assay: flow cytometry on cells (PE-tetramer staining)
# Details: with Clr-b on transfected HEK293T cells [mouse]; HEK293T cells stained 48 h after transfection with Clr-b pIRES2-EGFP; parent: 3.14e+03
row,Variant,response [MFI]
1,chain 1 R119A,238
2,chain 1 V95A,5900
3,chain 1 T96A,208
4,chain 1 D117A,232
5,chain 1 N62A,4880
6,chain 1 S100A,217
7,chain 1 S115A,178
8,chain 1 Y61A,346
9,chain 1 S111A,229
10,chain 1 N25A,5680
11,chain 1 E112A,269
12,chain 1 S116R,198
13,chain 1 S116A,211
14,chain 1 D74A,212
15,chain 1 N118A,213
